Drawing on article PMC11342271, “A high-throughput screening identifies MCM chromatin loading inhibitors targeting cells with increased replication origins” (iScience, 2024), this text covers Kd and binding signal for two molecules.

In data set [1] the target is T1, recombinant Xenopus laevis CDC6 (rCDC6) (Xenopus laevis, UniProt P79946).
T1 construct: gene cdc6.S; full-length; GST fusion from pGEX-6P-1 in E. coli Rosetta (DE3); GST cleaved with HRV 3C protease; Resource S and Superdex 200 purified
T1 sequence (P79946 1-554): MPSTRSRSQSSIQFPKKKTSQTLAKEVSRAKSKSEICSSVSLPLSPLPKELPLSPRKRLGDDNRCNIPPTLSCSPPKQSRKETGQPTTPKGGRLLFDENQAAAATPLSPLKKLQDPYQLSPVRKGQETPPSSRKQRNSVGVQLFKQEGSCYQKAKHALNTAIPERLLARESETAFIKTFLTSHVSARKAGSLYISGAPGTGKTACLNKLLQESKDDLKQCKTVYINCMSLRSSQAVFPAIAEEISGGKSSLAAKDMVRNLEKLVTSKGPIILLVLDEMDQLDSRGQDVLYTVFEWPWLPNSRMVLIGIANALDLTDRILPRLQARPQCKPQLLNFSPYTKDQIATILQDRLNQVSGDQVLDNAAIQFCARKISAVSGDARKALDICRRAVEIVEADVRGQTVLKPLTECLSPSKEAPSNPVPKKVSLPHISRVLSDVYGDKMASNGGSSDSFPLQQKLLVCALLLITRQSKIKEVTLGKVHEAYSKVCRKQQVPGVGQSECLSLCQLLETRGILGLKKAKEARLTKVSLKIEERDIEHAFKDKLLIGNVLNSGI
Kind of data set: isothermal titration calorimetry, one-site fit. The data set is classed as binding. Conditions: 25 °C; PBS, 10% glycerol, 1 mM MgCl2, 1 mM DTT, 1% DMSO; CDC6 74 μM (75 μM in methods) titrated with 1 mM compound. (Isothermal titration calorimetry measures the heat released or taken up as one component is titrated into another.)

The test system of data set [2] is MCM2-7 (detected via MCM7) (Xenopus laevis). As to the kind of experiment: ELISA (MCM7) on immobilized DNA. Conditions: 5' biotin (BtnTg), Interphase Xenopus laevis egg extract (HSS; 2-fold diluted in ELISA), 30 min, room temperature (ELISA), wash buffer, salt and pH not given in the material.

The term Kd denotes a measure of binding affinity in units of concentration. `O=C1C(SCCO)=C(SCCO)C(=O)c2ccccc21` [NSC-95397, 2,3-bis(2-hydroxyethylsulfanyl) naphthalene-1,4-dione]: the Kd in data set [1] was found to be 323 ± 269 nM.

As for bDNA (1.8 kb biotinylated DNA), the binding signal in data set [2] (+ 187 uM NSC-95397 (reduction at least 40%)), in data set [2] (+ 187 uM aminacrine (DNA intercalator; reduction at least 40%)) and in data set [2] (+ 187 uM ethacridine (DNA intercalator; reduction at least 40%)) was < 60 % of DMSO throughout.
